± gives the half width of the 95% confidence interval.
What was measured:
[1] = folding stability dG unfold from trypsin proteolysis; higher = more stable
In short: (§1)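 Designed mini-proteins with no cysteine and under 80 residues were kept only if AlphaFold2 dimer inter-PAE was above 15. In a PA-tagged cDNA display construct, they were digested with trypsin and chymotrypsin and then sequenced. K50 was inferred by Bayesian fitting of counts, and unfolding free energy was derived per protease or combined against a sequence-predicted unfolded-state K50 and a shared folded-state K50.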

[2] = folding stability dG unfold (combined trypsin and chymotrypsin); higher = more stable
In short: as §1

[3] = folding stability dG unfold from chymotrypsin proteolysis; higher = more stable
In short: as §1

| Sequence | folding stability dG unfold [1] | folding stability dG unfold [2] | folding stability dG unfold [3] |
| --- | --- | --- | --- |
| SAGGSAGGSAGGVGKDKPVIIKIKIKRKVYGLNTPELIAEEEEEIVVVVHPDVNPEKIKPSAGGSAGGSAGG [r7_591_TrMRF] | 1.06 ± 0.074 kcal/mol | 1.83 ± 0.35 kcal/mol | 2.34 ± 0.056 kcal/mol |
| SAGMDFPESYTPIASNGKTLVFKSPTEVYIVLYSPEGGSEVRSFTPGDESVLNPFLEELKKSDYVNLNISAG [r14_12_JUSTAS] | 0.695 ± 0.028 kcal/mol | 0.995 ± 0.093 kcal/mol | 1.1 ± 0.087 kcal/mol |
| SAGGSAGGMVIEFPKEKVEEVKKELLDAGKPDWVIVTDPNDPDIIKIMPKSLAEEKGWKYTPLLSAGGSAGG [r6_710_JUSTAS] | 2.33 ± 0.073 kcal/mol | 2.09 ± 0.16 kcal/mol | 2.06 ± 0.043 kcal/mol |
| SAGGSAGGSAGGGMTVLSFTMPKEEVEKYFEEKGLDATEMTISPGPGDTYSVTVLDPGSSAGGSAGGSAGGS [r10_999_JUSTAS] | 0.33 ± 0.089 kcal/mol | 0.151 ± 0.12 kcal/mol | -0.0653 ± 0.17 kcal/mol |
| SAGGSAGGSAGGWYIYFPNHYYPIKKITINPGGNIEIEFPNGNERTFDNVSIMPPGQEISAGGSAGGSAGGS [r10_1151_TrROS] | 0.178 ± 0.047 kcal/mol | 0.219 ± 0.097 kcal/mol | 0.105 ± 0.14 kcal/mol |
| SAGGSAGGSAGVEINIFMPSWEQAKHRAKSIARELRERGLPPNAEIKIKIHPIDPEDMGPSAGGSAGGSAGG [r17_180_TrROS] | -0.0827 ± 0.13 kcal/mol | -0.226 ± 0.25 kcal/mol | -0.576 ± 0.15 kcal/mol |
| SAGGSAETIETVSSTFPVFSEDDKPVAVVKTYIFKFEDGELVLTEVFTPDGKPVAVKVASLDEFLNSAGGSA [r15_755_TrMRF] | 1.27 ± 0.025 kcal/mol | 1.56 ± 0.071 kcal/mol | 1.7 ± 0.045 kcal/mol |
| SAGGSAGGSAGGSPNWVWILITVKITFPIYKYDPDGKPLEPIEITIEFTVLIRIPPGDFSAGGSAGGSAGGS [r4_425_TrROS] | 3.63 ± 0.19 kcal/mol | 5.15 ± 0.27 kcal/mol | 5.34 ± 0.18 kcal/mol |
| SAGGSAGGGMKVKKIEIKKDPNNPNIYTITIELEDEPIEYTVPPSTPTTIKKPGGKPLYSSPLPSAGGSAGG [r6_922_JUSTAS] | -0.626 ± 0.24 kcal/mol | 0.567 ± 0.15 kcal/mol | 0.986 ± 0.26 kcal/mol |
| SAGGSAGGSAGKKKKKKKKKPPVTLTVEIEIEINGKKYIAKKKVKLNKDGKLEVEVEIYPSAGGSAGGSAGG [r11_555_TrROS_Hall] | 2.4 ± 0.37 kcal/mol | 3.13 ± 0.41 kcal/mol | 3.23 ± 0.065 kcal/mol |
| SAGELAEKLAEELRKLFPNAEVEVEVVEVKEDYVVVKIRLRVVDEETGEEKTVEVELTLVLKPGEILPSAGG [r19_8_TrROS_Hall] | 3.79 ± 0.14 kcal/mol | 4.29 ± 0.3 kcal/mol | 4.66 ± 0.44 kcal/mol |
| SAGKKKKKKLKITIEITYNKETNTVTIKITVDGKEITVEVKAKSKEEALLNALKELEKKLNIKIKEVKLSAG [r5_251_TrROS_Hall] | 1.36 ± 0.13 kcal/mol | 2.27 ± 0.36 kcal/mol | 2.1 ± 0.18 kcal/mol |
| SAGGSAGGSAGPLKIKKLELRKLPDGFVEMTAEFEGPENYTVRLIVRKDDPNKLVLEVFPSAGGSAGGSAGG [r11_618_TrROS_Hall] | 2.07 ± 0.095 kcal/mol | 2.69 ± 0.16 kcal/mol | 2.98 ± 0.057 kcal/mol |
| SAGGSAGGSMSTSLSLSSAPGVSVVTTAHPDSTVVTEQPPDGSRVVRVLDPAGELVAEEAVAPSAGGSAGGS [r12_471_JUSTAS] | -0.623 ± 0.36 kcal/mol | -0.33 ± 0.15 kcal/mol | -0.302 ± 0.16 kcal/mol |
| SAGGMPKIVEIEILSEEYDPSTGVRTYTAKVTYPDGTEEVVTIPVDLTDGNATEEEVKKRVEELVLESAGGS [r16_221_JUSTAS] | 3.95 ± 0.22 kcal/mol | 3.76 ± 0.13 kcal/mol | 3.66 ± 0.11 kcal/mol |
| SSPALDEKYTAKVDAKVTSPEGKPLATFTIDVLTEEEAKKKIEEFVKELAEKLGRPDLPVTISNITIERVSA [r9_376_JUSTAS] | 0.519 ± 0.077 kcal/mol | 0.679 ± 0.25 kcal/mol | 0.921 ± 0.16 kcal/mol |

| Sequence | folding stability dG unfold [1] | folding stability dG unfold [2] | folding stability dG unfold [3] |
| --- | --- | --- | --- |
| EMTEEELREKLPELSPEELEELARKLAEELGIEEVEEVEVVSVKPDGTIEVKVKLKDGEELTIEIPLEELLS [r1_435_TrROS_Hall] | 2.8 ± 0.26 kcal/mol | 2.47 ± 0.22 kcal/mol | 2.07 ± 0.15 kcal/mol |
| SMKKPIDLIKKLGYTLTSVTKLPNGTTLITFEHPDSTVTVTVNPDGNIKITTTNPKNGTTTTTTIPVNKLSA [r9_2_JUSTAS] | 1.95 ± 0.08 kcal/mol | 2.08 ± 0.15 kcal/mol | 2.31 ± 0.099 kcal/mol |
| SAGGSKKKIYKIKIKIEVINEETGEKKTVEIEIEAESLEEALAAIAKALLPEGQTVKIVDIEIEEVSAGGSA [r2_320_TrROS_Hall] | 3.42 ± 0.069 kcal/mol | 3.73 ± 0.085 kcal/mol | 3.89 ± 0.079 kcal/mol |
| SKIKILIAMTEDEIKKLAEELKKKGYEIKIKVKKIEKKKVKVKNKDGKTYEKEVVLVEVEIEIVPKGVKPSA [r9_991_TrROS_Hall] | 2.73 ± 0.43 kcal/mol | 3.27 ± 0.73 kcal/mol | 3.98 ± 0.32 kcal/mol |
| SAGVVVERTVTRTVPKDSATKEKIIEEIKASMPGMKVKEVEVLSETPLPDGSIVVTVKLTIERPPDVLESAG [r5_682_JUSTAS] | 3.23 ± 0.11 kcal/mol | 2.98 ± 0.11 kcal/mol | 2.88 ± 0.092 kcal/mol |
| SAGSASSIKPISSTLDVRTDPETGKPVKATVYTYVLPSDGSSKQVPVPLSKKEPINLSPSDSYVTETRESAG [r5_950_JUSTAS] | -0.586 ± 0.17 kcal/mol | -0.361 ± 0.22 kcal/mol | -0.274 ± 0.27 kcal/mol |
| SAGGMLVEARPVLRLTLVSPDGTPREFELPFTVPFSPENPEALLEEAEAIARAIAEATGAEAEIEIEPSAGG [r13_853_TrMRF] | 0.506 ± 0.064 kcal/mol | 0.319 ± 0.15 kcal/mol | 0.017 ± 0.23 kcal/mol |
| SAGGSAGGKPKTYIILVIEDPENDKYLALLFDENGKLIGTAPFKSIDELLEKLPKNVKVIVLPASAGGSAGG [r6_492_TrMRF] | 3.6 ± 0.11 kcal/mol | 4.24 ± 0.1 kcal/mol | 4.47 ± 0.11 kcal/mol |
| SAGGSAGGSAGAPPEGAKPVEEETVPIEIQMRNDDDGKPIMPIKFEVRVYKFPDGIFISISAGGSAGGSAGG [r11_415_TrROS] | 1.34 ± 0.13 kcal/mol | 2.45 ± 0.21 kcal/mol | 2.91 ± 0.042 kcal/mol |
| SAGPDKPLKIESIGGKFNPDNGVISIKLKVEDPGDGKTYDYTMQFPVRDPDNGKPYMFTFPMRIKVPDSAGG [r19_129_TrROS] | 0.645 ± 0.072 kcal/mol | 0.607 ± 0.13 kcal/mol | 0.647 ± 0.16 kcal/mol |
| SAGGSAGGSMKITKSPSGYYTVTINLPNGTTVEIKVSTSDPNATDEQIIEIAKPKAEEILKKSSAGGSAGGS [r12_642_JUSTAS] | 1.16 ± 0.054 kcal/mol | 2.53 ± 0.14 kcal/mol | 2.87 ± 0.12 kcal/mol |
| SAGGMPVPVTFPFAGADEVIAFATALEELVNAPVGLTLISPSGEEREVGDPDSIVDEDGFTVRVTVPASAGG [r13_620_TrMRF] | 1.38 ± 0.015 kcal/mol | 0.921 ± 0.039 kcal/mol | -0.382 ± 0.16 kcal/mol |
| SAGMPVEIPLVIRLTRYRDLPDGPELAEVRELPLPLRADPSELDNPELLAFIREALEKLPDEIREVEIASAG [r5_849_TrMRF] | -0.255 ± 0.27 kcal/mol | 0.479 ± 0.17 kcal/mol | 0.757 ± 0.11 kcal/mol |
| SAMVLRIKVEVNGETKEIEIELPPNAKIEKKDGELTIYVKNPETGKIFKFKFKKNAKIVEVEEVDPEDLSAG [r14_313_TrROS_Hall] | 2.6 ± 0.046 kcal/mol | 3.83 ± 0.1 kcal/mol | 4.22 ± 0.052 kcal/mol |
| SAGGPPNGMVPIKVPIKIRFPNGHEFKIDEAYVMPNGMVMIEMTHTDPDDKKEKFPFMIPPDNLEIVSAGGS [r16_498_TrROS] | 2.41 ± 0.15 kcal/mol | 1.86 ± 0.19 kcal/mol | 1.59 ± 0.096 kcal/mol |
